According to the supplement of paper PMC10567573:

B1: CDKL4 (parent)
chain: AVKKFVESEDDPVVKKIALREIRM
B2: SPOPL (parent)
chain: YTGRAPNLDKMADNLLAAADKYAL

Variants of: B1
Test: protein stability index of a GFP-peptide fusion (GPS, HEK-293T) (PSI 1-6); higher = more stable
Conditions: c terminus: a fixed tail appended
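Further: lentivirally expressed fusions sorted by FACS into six bins by GFP to DsRed ratio, PSI derived from sequencing read proportions per bin multiplied by bin number.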

Protein stability index of substitutions, site by site:
D11: W 3.34, C 2.16, T 3, E 3.15
R23: F 1.93, K 3.29
M24: F 2.6, D 3.73, Y 3.86, T 3.15
K4: L 2.49, R 2.7, A 3.07
A1: C 2.48, F 2.21
K3: Y 2.28, R 3.39
A18: T 3.45, K 3.03
E21: K 2.48, L 2.69, R 3.02
V14: A 3.01, F 2.01, Q 3.71
D10: T 2.78, G 3.07, Q 2.8
P12: E 3.88
L19: D 3.97, F 2.09
I17: H 3.33, G 3.08
E9: D 2.69
V13: G 3.54, D 3.67, K 3.27
K15: Y 1.81, H 3.14
K16: A 3.77, M 3.17
R20: D 3.56
S8: L 1.91, F 2.08, K 3.15, W 2.24
I22: W 2.92
V2: A 3.8, K 3.55, W 2.1, I 2.31, L 3.7
E7: C 2.36, F 1.94, Q 2.54
F5: T 4

Variants of: B2
Test: as above
Conditions: c terminus: a fixed tail appended

Protein stability index: each site, then its substitutions
P6: C 1.65, Q 2.19, N 2.49, H 1.09, G 1.68, T 2.16, V 2.11, A 1.88, R 2.44, S 2.16, W 5, I 1.85, F 2.09, E 2.82, Y 1.75, M 2.2, K 1.43, D 2.31
N7: Q 2.39, W 1.84, K 1.68, T 2.06, I 1.81, E 1.99, V 1.7, H 1.68, Y 1.27, S 1.65, R 1.48, C 1.86, A 1.98, G 1.89, D 2.34, F 3.09
K10: V 1.75, C 1.35, E 2.23, H 1.97, D 1.91, S 2.83, I 1.49, M 2.41, L 1.89, F 1.68, Q 1.75, T 1.75, A 1.81, G 2.25, R 1.43, Y 1.61, N 2.6, P 2.42
A12: P 2.54, Q 2.07, W 1.32, N 2.88, D 2.92, G 2.36, F 1.58, H 2.33, C 2.56, E 2.05, I 2.87, R 1.56, K 1.97, L 1.53, S 2.2, M 2.64, Y 1.77, T 2.97
A5: F 2.31, D 3.19, S 2.33, H 1.47, E 3.58, I 1.58, W 4.42, P 2, T 2.42, M 1.51, R 1.74, N 3, G 1.93, K 2.01, V 1.78, Q 2.48, Y 1.41, L 1.77, C 1.87
Y1: N 3.81, G 4.11, H 3.8, I 2.16, W 2.94, E 4.07, D 4.63, C 3.08, K 3.61, M 3.06, L 2.63, Q 4.13, V 1.76, T 3.37, P 3.65, A 2.15
L8: C 2.28, S 1.83, T 2.55, V 3.88, K 2.16, Q 2.58, F 1.9, P 3.29, D 3, R 2.93, H 2.38, Y 1.36, N 2.94, I 1.85, G 2.81, M 1.8
G3: A 2.17, K 2.18, I 1.86, D 3.99, R 2.29, M 2.68, V 2.62, W 2.88, L 2.11, T 1.94, C 1.64, Q 2.7, N 2.83, E 2.94, H 2.5, P 2.14, F 1.93, S 2.1, Y 2.82
D13: R 2.66, H 1.75, P 2.2, T 1.91, L 1.81, K 1.68, C 2.17, A 1.34, S 2.04, F 1.87, N 2.46, Q 1.91, M 2.12, G 3.29, V 1.73, I 2.42
R4: D 3, C 2.31, M 1.69, I 1.96, F 2.12, S 2.77, G 2.74, T 1.84, Q 2.86, N 2.09, A 2.38, P 2.75, H 2.04, V 1.88, E 3.04, L 3.6, Y 2.02, K 2.41
M11: C 1.55, V 3.05, L 2.44, F 1.73, T 2.62, E 2.56, S 2.62, H 2.47, Y 1.31, Q 2.34, D 2.42, I 2.32, W 2.21, K 2.15, N 2.43, R 2.05, P 2.56, A 2.02, G 1.62
D9: P 2.36, E 2.24, A 2.12, S 1.78, H 2.17, R 1.2, K 2.34, W 2.67, I 1.37, M 2.23, F 3.79, N 1.65, V 3.1, T 1.85, C 1.99, Q 2.84
L16: G 2.94, I 2.33, R 2.65, H 2.97, M 2.37, E 3.22, S 1.84, T 3.25, F 1.22, K 3.18, Q 2.73, C 1.59, P 2.32, D 3.83, A 2.24, N 2.22
T2: D 3.75, M 2.24, I 1.98, W 2.01, P 2.75, E 3.81, K 2.49, R 2.43, Q 2.29, S 2.75, F 2.47, L 2.76, G 2.79, A 1.32, N 2.93, V 2.97, H 2.4, Y 2.15
L15: V 2.14, C 2.87, Q 2.96, E 2.92, D 2.83, H 2.38, N 2.74, I 2.25, R 2.43, P 2.43, G 2.35, K 3.64, M 2.19, T 2.32, Y 1.98, F 2.23, S 3.6, W 1.93
N14: R 2.39, W 1.45, Q 2.01, H 1.94, D 2.25, T 1.45, V 2.43, I 1.85, K 1.73, M 2.37, A 1.69, Y 1.86, F 1.84, S 2.38, G 2.05, E 2.16, P 2.2
